We go through five molecules from patent US20260199443A1, “HISTONE DEACYTLASE 6 MODULATION OF TITIN PROTEIN MEDIATED CARDIAC TISSUE STIFFNESS AND METHOD FOR SAME” (The Regents of the University of Colorado, a Body Corporate, priority 2019, published 2026).

In data set [1] the test system is human myofibrils from non-failing donor left ventricle (titin). In words: Ex vivo treatment of human LV myofibrils with recombinant HDAC6, then myofibril mechanics. As for the experimental part: (§1) Myofibril mechanics were quantified using the fast solution switching technique (47). Frozen LV sections were skinned in 0.5% Triton-X in rigor solution (132 mM NaCl, 5 mM KCl, 1 mM MgCl2, 10 mM Tris, 5 mM EGTA, pH 7.1) containing protease inhibitors (10 μm leupeptin, 5 μm pepstatin, 200 μm PMSF and 10 μm E64), as well as 500 μm NaN3 and 500 μm DTT at 4° C. overnight. Skinned LVs were washed in fresh rigor solution and homogenized (Tissue-Tearor, Thomas Scientific) in relaxing solution (pCa 9.0) containing protease inhibitors. […] Average sarcomere lengths and myofibril diameters were measured using ImageJ software. […] Data were collected and analyzed using customized Lab View software. Measured mechanical and kinetic parameters were defined as follows: resting tension (mN/mm^2)=myofibril basal tension in fully relaxing condition; maximal tension (mN/mm^2)=maximal tension generated at full calcium activation (pCa 4.5); the rate constant of tension development following maximal calcium activation=kACT; and relaxation parameters were defined as: duration of the linear relaxation=linear duration, and the rate constant of exponential relaxation=fast kREL. For, myofibril resting tension-to-sarcomere length curves, each myofibril was stretched incrementally to determine the resting tension at different sarcomere lengths, and a resting tension-sarcomere length relationship was measured. […]

In data set [2] the test system is WT mouse left ventricle myofibrils (titin). Put plainly: Ex vivo treatment of WT mouse LV myofibrils with recombinant HDAC6, then myofibril mechanics. To be noted: 30 minutes, listed as rHDAC6. As for the experimental part: as §1
Data set [3] deals with rat myofibrils (titin). In words: Ex vivo incubation of purified rat myofibrils with recombinant enzyme, then myofibril mechanics. To be noted: 30 minutes. As for the experimental part: as §1
Data set [4] has as its system myofibrils from mice lacking the PEVK region of titin. Put plainly: Ex vivo treatment of PEVK KO mouse LV myofibrils with recombinant HDAC6, then myofibril mechanics. To be noted: 30 minutes. The protocol: as §1
Data set [5] relates to myofibrils from non-failing human LVs. In words: Ex vivo treatment of human myofibrils with recombinant PKCα, with or without subsequent recombinant HDAC6, then myofibril mechanics. The protocol: Myofibril mechanics were quantified using the fast solution switching technique (47). Frozen LV sections were skinned in 0.5% Triton-X in rigor solution (132 mM NaCl, 5 mM KCl, 1 mM MgCl2, 10 mM Tris, 5 mM EGTA, pH 7.1) containing protease inhibitors (10 μm leupeptin, 5 μm pepstatin, 200 μm PMSF and 10 μm E64), as well as 500 μm NaN3 and 500 μm DTT at 4° C. overnight. Skinned LVs were washed in fresh rigor solution and homogenized (Tissue-Tearor, Thomas Scientific) in relaxing solution (pCa 9.0) containing protease inhibitors. Myofibril suspensions were transferred to a temperature controlled chamber (15° C.) containing relaxing solution (pCa 9.0; 100 mM Na2EGTA; 1 M potassium propionate; 100 mM Na2SO4; 1 M MOPS; 1 M MgCl2; 6.7 mM ATP; and 1 mM creatine phosphate; pH 7.0). Myofibril bundles were mounted between two micro-tools. One tool was connected to a motor that could produce rapid length changes (Mad City Labs). The second tool was a calibrated cantilevered force probe (7-10 μm/μN; frequency response 2-5 KHz). Myofibrils were set 5-10% above slack myofibril length. Average sarcomere lengths and myofibril diameters were measured using ImageJ software. Mounted myofibrils were activated and relaxed by rapidly translating the interface between two flowing streams of solutions of different pCa. Data were collected and analyzed using customized Lab View software. Measured mechanical and kinetic parameters were defined as follows: resting tension (mN/mm^2)=myofibril basal tension in fully relaxing condition; maximal tension (mN/mm^2)=maximal tension generated at full calcium activation (pCa 4.5); the rate constant of tension development following maximal calcium activation=kACT; and relaxation parameters were defined as: duration of the linear relaxation=linear duration, and the rate constant of exponential relaxation=fast kREL. For, myofibril resting tension-to-sarcomere length curves, each myofibril was stretched incrementally to determine the resting tension at different sarcomere lengths, and a resting tension-sarcomere length relationship was measured. […]

The subject of data set [6] is PKC-driven phosphorylation of sacromeric proteins. In words: Immunoblot with anti-PKC substrate antibody of treated human myofibril proteins. It is filed as biochemical. The settings on record: human myofibrils, PKCα followed by HDAC6. As for the experimental part: FIG. 3E is an immunoblot performed with an anti-PKC substrate antibody and solubilized proteins from myofibrils treated as indicated in the protocol illustrated in FIG. 3B.
Elevated PEVK phosphorylation is s associated with increased cardiomyocyte passive stiffness in pre-clinical models and in human heart failure (7). To begin to address the therapeutic potential of HDAC6 gain-of-function, an ex vivo experiment was performed to determine whether HDAC6 is capable of overriding the cardiac stiffening effect of PKC. Myofibrils obtained from non-failing human LVs were pretreated with recombinant PKCα, washed, and then incubated with recombinant HDAC6 (FIG. 3B).

Data set [7] has as its system adult rat ventricular myocytes (ARVMs). In words: Myofibril resting tension after 24 hour treatment of cultured ARVMs. The settings on record: myofibrils isolated from ARVMs treated for 24 hours. In kind it is cell-based.
Data set [8] has as its system diastolic dysfunction in murine models. To be noted: murine models of hypertension and aging, reference (21); cited from earlier work.
Data set [9] has as its target T1, HDAC6 (Rattus norvegicus, UniProt A0A8I6GM68).
T1 construct: endogenous in cells; host or cells: adult rat ventricular myocytes (ARVMs) from Sprague Dawley rats
Put plainly: Tubulin acetylation in treated ARVMs as a marker of HDAC6 inhibition (immunofluorescence, immunoblot). It is filed as cell-based. To be noted: ARVMs treated for 24 hours. From the text: FIG. 1K are images of immunoblot analysis of acetyl-tubulin and total tubulin in whole-cell homogenates from treated ARVMs.

Entries after “also recorded” stand apart in the source; their conditions may differ. Like-named read-outs stand apart in the source and are kept apart here.

T1 sequence (A0A8I6GM68 whole entry): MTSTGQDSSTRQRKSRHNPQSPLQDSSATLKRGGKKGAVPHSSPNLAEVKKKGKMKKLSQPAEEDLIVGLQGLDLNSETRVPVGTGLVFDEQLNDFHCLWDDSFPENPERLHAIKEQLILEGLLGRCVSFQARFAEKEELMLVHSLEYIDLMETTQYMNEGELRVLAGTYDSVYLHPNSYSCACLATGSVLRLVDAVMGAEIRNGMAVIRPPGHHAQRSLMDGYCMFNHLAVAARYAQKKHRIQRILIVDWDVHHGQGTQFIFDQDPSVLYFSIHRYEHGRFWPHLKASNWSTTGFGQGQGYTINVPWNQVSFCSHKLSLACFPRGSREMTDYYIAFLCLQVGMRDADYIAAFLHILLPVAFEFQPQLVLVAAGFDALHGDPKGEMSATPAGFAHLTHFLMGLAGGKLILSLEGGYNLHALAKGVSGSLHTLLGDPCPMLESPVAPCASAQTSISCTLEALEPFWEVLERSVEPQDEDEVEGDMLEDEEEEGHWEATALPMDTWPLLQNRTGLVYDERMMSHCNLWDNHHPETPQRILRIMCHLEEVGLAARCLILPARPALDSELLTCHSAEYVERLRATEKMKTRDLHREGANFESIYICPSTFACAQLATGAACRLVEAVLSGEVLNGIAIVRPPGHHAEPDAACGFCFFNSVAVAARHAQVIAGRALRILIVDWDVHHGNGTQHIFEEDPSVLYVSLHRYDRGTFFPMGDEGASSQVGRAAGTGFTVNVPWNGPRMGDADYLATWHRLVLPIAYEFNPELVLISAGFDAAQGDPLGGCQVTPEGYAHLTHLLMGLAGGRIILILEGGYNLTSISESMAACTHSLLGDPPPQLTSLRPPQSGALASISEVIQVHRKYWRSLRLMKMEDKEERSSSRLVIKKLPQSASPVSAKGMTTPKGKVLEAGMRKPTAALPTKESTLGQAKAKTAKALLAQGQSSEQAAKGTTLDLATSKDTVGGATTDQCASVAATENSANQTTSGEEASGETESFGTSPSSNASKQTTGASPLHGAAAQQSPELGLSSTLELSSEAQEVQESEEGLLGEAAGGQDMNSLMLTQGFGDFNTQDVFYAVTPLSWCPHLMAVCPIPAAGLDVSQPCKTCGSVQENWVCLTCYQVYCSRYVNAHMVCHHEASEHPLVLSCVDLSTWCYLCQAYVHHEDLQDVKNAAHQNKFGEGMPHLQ

For the molecule “recombinant HDAC6: recombinant HDAC6 (1 μg/μL, BPS Bioscience) used for ex vivo treatment of myofibrils”, the “myofibril compliance / cardiomyocyte passive stiffness” value in data set [1] is reported as “increases myofibril compliance”; in data set [1] (listed as rHDAC6), “conserved ability of this deacetylase to control cardiomyocyte passive stiffness”. The myofibril compliance result in data set [2] is on record as “increased compliance”. In addition, the “titin stiffness / myofibril compliance” value in data set [3] is reported as “reduced titin stiffness; also recorded: increases myofibril compliance”. Besides, in [4], the “response of myofibril stiffness to HDAC6” value is listed as “completely resistant”. Also, the “PKC-induced leftward shift in the sarcomere length-to-resting tension curve” value in data set [5] (human myofibrils pretreated with recombinant PKCα, then recombinant HDAC6) is “largely blocked”. Also, the “PKCα-induced stiffening (resting tension at physiologic sarcomere length)” value in [5] (human myofibrils pretreated with recombinant PKCα, washed, then incubated with recombinant HDAC6) was “completely normalized”. For the same molecule, the “PKC-driven phosphorylation of sacromeric proteins” value in data set [6] is reported as “without affecting”.

Consider `CCN(CC)Cc1ccc2cc(COC(=O)Nc3ccc(C(=O)NO)cc3)ccc2c1` [givinostat, [6-(diethylaminomethyl)naphthalen-2-yl] methyl N-[4-(hydroxycarbamoyl)phenyl] carbamate], for which the “myofibril resting tension / myofibril stiffness” value in data set [7] is on record as “no effect”. Also, in data set [8], the diastolic dysfunction result is given as “ameliorates rather than exacerbates diastolic dysfunction”.

Take “PKCα: recombinant PKCα (0.066 U/μL, Millipore 14-484) with lipid activator”: the “myofibril resting tension at physiologic sarcomere length” value in [5] (human myofibrils treated with recombinant PKCα alone) is “dramatically increased”.

As to “HDAC2: recombinant HDAC2 used as control in the ex vivo myofibril assay”, the “titin stiffness / myofibril compliance” value in data set [3] is “not”.

In the case of `CN1CCc2c(c3ccccc3n2Cc2ccc(C(=O)NO)cc2)C1` [tubastatin A], the “tubulin acetylation as a marker of HDAC6 inhibition” value in [9] is given as “inhibited HDAC6 equivalently”. In data set [7], the “myofibril resting tension / myofibril stiffness” value was “elevated resting tension; also recorded: dramatically increased resting tension”.
